The values below come from paper PMC10018367.

Read-outs that look alike come from different tables or passages of the source.

Common to all, as to assay: EMSA
Data set [1] concerns the target T1, PARP1 (Homo sapiens, UniProt P09874 1-1014).
Data set [2] addresses T1, PARP1. This is another data set of the same source.
The target in data set [3] is T1, PARP1. The source holds these as a separate data set.
The target in data set [4] is T1, PARP1. The source holds these as a separate data set.

T1 sequence (P09874 whole entry): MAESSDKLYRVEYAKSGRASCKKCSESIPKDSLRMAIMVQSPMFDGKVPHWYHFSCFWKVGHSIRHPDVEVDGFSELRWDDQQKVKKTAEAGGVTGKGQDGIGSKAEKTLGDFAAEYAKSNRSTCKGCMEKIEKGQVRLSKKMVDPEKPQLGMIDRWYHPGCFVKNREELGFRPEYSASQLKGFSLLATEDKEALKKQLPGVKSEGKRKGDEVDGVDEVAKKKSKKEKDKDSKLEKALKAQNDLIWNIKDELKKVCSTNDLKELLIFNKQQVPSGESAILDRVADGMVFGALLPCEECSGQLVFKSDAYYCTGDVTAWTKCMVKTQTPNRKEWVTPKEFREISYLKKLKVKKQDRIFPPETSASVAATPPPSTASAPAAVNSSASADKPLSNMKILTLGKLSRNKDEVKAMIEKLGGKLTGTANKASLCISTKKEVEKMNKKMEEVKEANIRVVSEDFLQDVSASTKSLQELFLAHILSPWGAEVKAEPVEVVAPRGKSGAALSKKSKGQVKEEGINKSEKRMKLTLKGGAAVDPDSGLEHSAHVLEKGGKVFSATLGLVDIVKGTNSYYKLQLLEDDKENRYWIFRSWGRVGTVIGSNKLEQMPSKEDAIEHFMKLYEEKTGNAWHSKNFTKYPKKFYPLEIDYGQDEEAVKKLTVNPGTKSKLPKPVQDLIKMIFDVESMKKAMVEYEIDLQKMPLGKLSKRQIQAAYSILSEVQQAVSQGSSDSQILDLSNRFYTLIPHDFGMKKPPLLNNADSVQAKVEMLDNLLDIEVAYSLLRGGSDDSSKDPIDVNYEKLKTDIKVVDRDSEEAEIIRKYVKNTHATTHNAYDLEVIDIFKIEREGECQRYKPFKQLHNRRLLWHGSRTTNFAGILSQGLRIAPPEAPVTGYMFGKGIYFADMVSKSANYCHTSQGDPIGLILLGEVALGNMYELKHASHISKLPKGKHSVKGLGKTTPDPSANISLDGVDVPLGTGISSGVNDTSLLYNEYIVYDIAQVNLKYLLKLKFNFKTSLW

In the case of AAAGAUGUCCUAGCAAGGCAC (ssRNA) [ssRNA JYM3704], the binding result with PARP1 [1] was “no binding”.

B1: ssDNA JYM3702 (ssDNA)
DNA: GGGTGAACCTGCAGGTGGGCGGCTGCTCATCGTAGGTTAGTTGGTAGAATTCGGCAGCGTC
Regarding B1, in the data set with PARP1 [2], the binding result is reported as “binds”.

B2: R-loop (JYM3702 + JYM3703 + JYM3704) (mixed)
DNA 1: GGGTGAACCTGCAGGTGGGCGGCTGCTCATCGTAGGTTAGTTGGTAGAATTCGGCAGCGTC
DNA 2: GACGCTGCCGAATTCTACCAGTGCCTTGCTAGGACATCTTTGCCCACCTGCAGGTTCACCC
RNA: AAAGAUGUCCUAGCAAGGCAC
modifications: RNA strand 3
Consider B2, for which, in the data set with PARP1 [3], the binding result is “binds”.

B3: D-loop (JYM3702 + JYM3703 + JYM3705) (structured_DNA)
DNA 1: GGGTGAACCTGCAGGTGGGCGGCTGCTCATCGTAGGTTAGTTGGTAGAATTCGGCAGCGTC
DNA 2: GACGCTGCCGAATTCTACCAGTGCCTTGCTAGGACATCTTTGCCCACCTGCAGGTTCACCC
DNA 3: AAAGATGTCCTAGCAAGGCAC
As for B3, the binding result with PARP1 [4] is “binds”.
